Laboratory results taken from patent US20140087995A1 (published 2014).
Numbered stars: 1 amine (or outer) side, 2 acyl side, 3 side chain; on linkers, the order of the positions; unused ones are H or OH. Bridge positions count the residues as written; N and C are the ends. Side chains are listed from the residue outwards. Ends that are not written are not given here. * marks the point of attachment. C20 diacid = O=C(O)CCCCCCCCCCCCCCCCCCC(=O)*; γGlu = O=C(O)[C@H](CCC(=O)[*:2])N[*:1]; AEEA = NCCOCCOCC(=O)O

T1: human calcitonin receptor (human, UniProt P30988 25-474)
T1 sequence (looked up): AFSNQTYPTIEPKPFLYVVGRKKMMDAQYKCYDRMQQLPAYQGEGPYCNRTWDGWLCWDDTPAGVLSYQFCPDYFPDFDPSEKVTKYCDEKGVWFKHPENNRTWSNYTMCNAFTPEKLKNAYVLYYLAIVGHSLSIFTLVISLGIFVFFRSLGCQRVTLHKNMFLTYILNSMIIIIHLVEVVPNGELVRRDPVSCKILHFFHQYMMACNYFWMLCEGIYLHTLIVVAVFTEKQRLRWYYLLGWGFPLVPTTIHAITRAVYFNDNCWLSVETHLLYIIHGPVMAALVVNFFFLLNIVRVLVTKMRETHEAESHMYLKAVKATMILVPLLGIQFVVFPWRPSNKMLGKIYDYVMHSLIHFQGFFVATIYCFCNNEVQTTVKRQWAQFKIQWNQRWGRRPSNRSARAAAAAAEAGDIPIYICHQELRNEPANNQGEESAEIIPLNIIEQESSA

T2: human amylin receptor (amylin 3(a) receptor: human calcitonin receptor coexpressed with RAMP-3) (human, UniProt P30988 25-474; O60896 24-148)
T2 sequence (looked up) 1: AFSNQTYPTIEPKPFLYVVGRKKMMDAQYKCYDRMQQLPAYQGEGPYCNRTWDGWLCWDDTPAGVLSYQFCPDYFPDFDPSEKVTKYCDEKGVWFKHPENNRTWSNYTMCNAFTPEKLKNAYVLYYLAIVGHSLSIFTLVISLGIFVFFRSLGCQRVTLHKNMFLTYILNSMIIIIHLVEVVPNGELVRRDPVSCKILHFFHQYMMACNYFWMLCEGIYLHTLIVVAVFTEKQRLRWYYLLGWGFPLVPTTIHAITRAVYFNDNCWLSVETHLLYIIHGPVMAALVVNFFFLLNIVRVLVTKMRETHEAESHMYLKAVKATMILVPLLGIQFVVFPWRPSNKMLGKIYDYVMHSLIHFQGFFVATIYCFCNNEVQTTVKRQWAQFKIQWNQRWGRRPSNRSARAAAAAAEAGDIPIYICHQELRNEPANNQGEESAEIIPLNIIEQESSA
T2 sequence (looked up) 2: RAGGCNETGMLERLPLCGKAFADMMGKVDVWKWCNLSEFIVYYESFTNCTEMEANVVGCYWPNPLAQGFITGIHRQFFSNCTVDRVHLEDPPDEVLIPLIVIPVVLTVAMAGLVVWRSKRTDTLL


Experiments:
[1] = biological target: T1, human calcitonin receptor; assay: cell-based or functional assay
[2] = biological target: T2, human amylin receptor (amylin 3(a) …); assay: cell-based or functional assay

Binder | hCTR funct. EC50 (pM) [1] | hAmylin-R funct. EC50 (pM) [2] | Ratio hCT/hAmylin funct. [1]
K([AEEA-γGlu-C20 diacid])CNTATCATQRLANFLRHSSPNFGAIPSSTNVGHNTY-NH2 (disulfide 2-7; N-terminus assumed; SMILES CC[C@H](C)[C@H](NC(=O)[C@H](C)NC(=O)CNC(=O)[C@H](Cc1ccccc1)NC(=O)[C@H](CC(N)=O)NC(=O)[C@@H]1CCCN1C(=O)[C@H](CO)NC(=O)[C@H](CO)NC(=O)[C@H](Cc1c[nH]cn1)NC(=O)[C@H](CCCNC(=N)N)NC(=O)[C@H](CC(C)C)NC(=O)[C@H](Cc1ccccc1)NC(=O)[C@H](CC(N)=O)NC(=O)[C@H](C)NC(=O)[C@H](CC(C)C)NC(=O)[C@H](CCCNC(=N)N)NC(=O)[C@H](CCC(N)=O)NC(=O)[C@@H](NC(=O)[C@H](C)NC(=O)[C@@H]1CSSC[C@H](NC(=O)[C@@H](N)CCCCNC(=O)COCCOCCNC(=O)CC[C@H](NC(=O)CCCCCCCCCCCCCCCCCCC(=O)O)C(=O)O)C(=O)N[C@@H](CC(N)=O)C(=O)N[C@@H]([C@@H](C)O)C(=O)N[C@@H](C)C(=O)N[C@@H]([C@@H](C)O)C(=O)N1)[C@@H](C)O)C(=O)N1CCC[C@H]1C(=O)N[C@@H](CO)C(=O)N[C@@H](CO)C(=O)N[C@H](C(=O)N[C@@H](CC(N)=O)C(=O)N[C@H](C(=O)NCC(=O)N[C@@H](Cc1c[nH]cn1)C(=O)N[C@@H](CC(N)=O)C(=O)N[C@H](C(=O)N[C@@H](Cc1ccc(O)cc1)C(N)=O)[C@@H](C)O)C(C)C)[C@@H](C)O, also called compound 76) | 7370 pM | 297 pM | 
K([AEEA-AEEA-γGlu-C20 diacid])CNTATCATQRLANFLRHSSPNFGAIPSSTNVGRNTY-NH2 (disulfide 2-7; N-terminus assumed; SMILES CC[C@H](C)[C@H](NC(=O)[C@H](C)NC(=O)CNC(=O)[C@H](Cc1ccccc1)NC(=O)[C@H](CC(N)=O)NC(=O)[C@@H]1CCCN1C(=O)[C@H](CO)NC(=O)[C@H](CO)NC(=O)[C@H](Cc1c[nH]cn1)NC(=O)[C@H](CCCNC(=N)N)NC(=O)[C@H](CC(C)C)NC(=O)[C@H](Cc1ccccc1)NC(=O)[C@H](CC(N)=O)NC(=O)[C@H](C)NC(=O)[C@H](CC(C)C)NC(=O)[C@H](CCCNC(=N)N)NC(=O)[C@H](CCC(N)=O)NC(=O)[C@@H](NC(=O)[C@H](C)NC(=O)[C@@H]1CSSC[C@H](NC(=O)[C@@H](N)CCCCNC(=O)COCCOCCNC(=O)COCCOCCNC(=O)CC[C@H](NC(=O)CCCCCCCCCCCCCCCCCCC(=O)O)C(=O)O)C(=O)N[C@@H](CC(N)=O)C(=O)N[C@@H]([C@@H](C)O)C(=O)N[C@@H](C)C(=O)N[C@@H]([C@@H](C)O)C(=O)N1)[C@@H](C)O)C(=O)N1CCC[C@H]1C(=O)N[C@@H](CO)C(=O)N[C@@H](CO)C(=O)N[C@H](C(=O)N[C@@H](CC(N)=O)C(=O)N[C@H](C(=O)NCC(=O)N[C@@H](CCCNC(=N)N)C(=O)N[C@@H](CC(N)=O)C(=O)N[C@H](C(=O)N[C@@H](Cc1ccc(O)cc1)C(N)=O)[C@@H](C)O)C(C)C)[C@@H](C)O, also called compound 95) | 21500 pM | 651 pM | 33
